How the values were obtained:
human IL-13Rβ (human) [1] = molecular target: human IL-13Rβ (human) (UniProt Q14627); test: Scatchard analysis of saturation binding of 125I-labelled IL-13 on Caki-1 cells
[2] = molecular target: hIL-13Rα and hIL-4R coexpressed on cells (reconstituted high-affinity receptor) (human) (UniProt P24394); test: Scatchard analysis on CHO-hIL4R cells transfected with hIL-13Rα cDNA, high-affinity site
human IL-13Rβ (human) [3] = molecular target: human IL-13Rβ (human) (UniProt Q14627); test: Scatchard analysis of saturation binding on COS-7 cells transfected with IL-13Rβ cDNA
human IL-13Rα (human) [4] = molecular target: human IL-13Rα (human) (UniProt P78552); test: radioligand binding on CHO cells; the basis of this value is not explained
human IL-13Rα (human) [5] = molecular target: human IL-13Rα (human) (UniProt P78552); test: Scatchard analysis of saturation binding on CHO cells transfected with IL-13Rα cDNA
human IL-13Rα (human) [6] = molecular target: human IL-13Rα (human) (UniProt P78552); test: Scatchard analysis on CHO-hIL4R cells transfected with hIL-13Rα cDNA, low-affinity site (nonassociated IL-13Rα chains)

Sequence of UniProt P78552 (P78552 22-427 limits assumed, form in doubt): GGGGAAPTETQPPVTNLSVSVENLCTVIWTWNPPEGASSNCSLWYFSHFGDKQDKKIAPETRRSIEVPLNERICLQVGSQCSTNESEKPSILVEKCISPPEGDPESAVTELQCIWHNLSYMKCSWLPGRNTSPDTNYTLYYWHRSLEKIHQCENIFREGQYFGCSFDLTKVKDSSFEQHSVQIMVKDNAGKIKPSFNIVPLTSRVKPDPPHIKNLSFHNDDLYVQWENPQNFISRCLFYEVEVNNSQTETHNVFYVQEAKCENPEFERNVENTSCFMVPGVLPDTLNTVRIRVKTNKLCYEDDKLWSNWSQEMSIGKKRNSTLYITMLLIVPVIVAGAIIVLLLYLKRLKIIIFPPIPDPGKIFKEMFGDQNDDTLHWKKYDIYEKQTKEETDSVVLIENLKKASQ
Sequence of UniProt Q14627 (Q14627 27-380 limits assumed, form in doubt): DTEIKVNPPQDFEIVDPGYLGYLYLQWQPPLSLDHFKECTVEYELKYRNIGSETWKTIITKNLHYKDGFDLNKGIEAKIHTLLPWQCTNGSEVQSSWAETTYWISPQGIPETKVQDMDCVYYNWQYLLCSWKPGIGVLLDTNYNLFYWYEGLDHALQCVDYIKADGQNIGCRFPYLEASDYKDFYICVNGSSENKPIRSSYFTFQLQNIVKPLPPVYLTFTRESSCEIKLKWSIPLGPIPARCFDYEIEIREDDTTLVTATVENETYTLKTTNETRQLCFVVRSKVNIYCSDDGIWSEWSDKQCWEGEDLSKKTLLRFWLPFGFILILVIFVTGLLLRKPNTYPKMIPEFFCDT

Kd (human IL-13Rβ (human) [1]): 0.446 nM
Kd [2]: 0.023 nM
Kd (human IL-13Rβ (human) [3]): 0.25 nM
Kd (human IL-13Rα (human) [4]): 7.5 nM
Kd (human IL-13Rα (human) [5]): 4.5 nM
Kd (human IL-13Rα (human) [6]): 4.2 nM
Substance: [125I][Phe43]-IL-13-GlyTyrGlyTyr (from UniProt P35225 35-146) (ligand)

Source: US20050282216A1
